Data published in patent US20160311911A1, “METHODS FOR TREATING ALLERGIC AIRWAY INFLAMMATION” (priority 2015, published 2016).

Experiments:
Assay type in all cases: cell-based
Details in all cases: 100 μg/mL for 18 hours
[1] = tested on: TLR4^Hi cells; assay: CXCL8 levels in cell supernatants, TLR4^Hi cells
Text: (§1) Three HEK 293 cell lines, TCM^Null (TLR4^Null, CD14^Null, MD2^Null), TLR4^Hi (TLR4^Hi, CD14^Null, MD2^Null) and TCM^hi (TLR4^Hi, CD14^Hi, MD2^Hi; InvivoGen, San Diego, Calif.), were used. In some experiments hTERT immortalized normal human bronchial epithelial cells (HBECs) were used, as previously described (17).
(§2) Measurement of CXCL8 levels in cell supernatants. TCM^Null, TLR4^Hi, TCM^Hi, TLR4^Hi-ST, or TLR4^Hi-MD2 cells were stimulated with RWPE, Bermuda grass, rye grass, pigweed, mountain cedar, cat dander, LPS, or Amb a 1 at 100 μg/mL for 18 hours. In some experiments HBECs, HBECs transfected with siRNA against MD2, or sham-transfected HBECs were starved for 24 hours and stimulated with RWPE, Bermuda grass, rye grass, timothy grass, pigweed, Russian thistle, cottonwood, walnut, and cat dander allergenic extracts. Cell supernatants were assayed for CXCL8.

[2] = tested on: TCM^Null cells; assay: CXCL8 levels in cell supernatants, TCM^Null cells
Text: as §1, §2

[3] = tested on: TCM^Hi cells; assay: CXCL8 levels in cell supernatants, TCM^Hi cells
Text: as §1, §2

B1: Amb a 1: major allergen in RWPE, a single protein (protein)
chain: AEDLQEILPVNETRRLTTSGAYNIIDGCWRGKADWAENRKALADCAQGFGKGTVGGKDGDIYTVTSELDDDVANPKEGTLRFGAAQNRPLWIIFERDMVIRLDKEMVVNSDKTIDGRGAKVEIINAGFTLNGVKNVIIHNINMHDVKVNPGGLIKSNDGPAAPRAGSDGDAISISGSSQIWIDHCSLSKSVDGLVDAKLGTTRLTVSNSLFTQHQFVLLFGAGDENIEDRGMLATVAFNTFTDNVDQRMPRCRHGFFQVVNNNYDKWGSYAIGGSASPTILSQGNRFCAPDERSKKNVLGRHGEAAAESMKWNWRTNKDVLENGAIFVASGVDPVLTPEQSAGMIPAEPGESALSLTSSAGVLSCQPGAPC
[1]
  CXCL8 secretion from TLR4^Hi cells: only in TCM^Hi cells
[2]
  CXCL8 secretion from TCM^Null cells: only in TCM^Hi cells
[3]
  CXCL8 secretion from TCM^Hi cells: induced CXCL8 secretion
